Here are results for 3 molecules from patent US10960048B2, “Alpha-1-microglobulin for use in the protection of kidneys in radionuclide therapy” (Guard Therapeutics International AB, priority 2015, dated 2021).

Data set [1] concerns ^177Lu-octreotide PRRT kidney damage mouse model. The data set is described as follows: Short-term radioprotection of kidneys with A1M in PRRT (^177Lu-octreotide PRRT kidney damage mouse model). How it is done:
NB, ^177Lu-DOTATATE and A1M are injected separately at T=0. Analytic Methods:
The mice were left for 1 day or 8 days, and then sacrificed with sampling of plasma and urine, as described above.

For data set [2] the following is noted: patients treated with PRRT; cited from earlier work.
For data set [3] the following is noted: in vivo, iv.
The conditions of data set [4]: mouse, in vivo, iv. The procedure: Organ-specific uptake values were calculated as percent injected activity per gram of tissue (% IA/g) or percent injected activity (% IA).
For data set [5] the following is noted: from blood stream; cited from earlier work.
The nature of data set [6]: Immunohistochemistry and confocal fluorescence microscopy of A1M and octreotide-647 in kidney sections. Further details: species or system mice. The conditions noted are these: mouse, in vivo. The procedure: However, only wild-type data are included. After euthanization, kidneys were removed directly frozen and embedded in Tissue Tec. […] Serial sectioning was performed, collecting 3-4 sections per slide, of which adjacent slides were used for either chromogen immunohistochemistry (IHC) or immunofluorescence (IF) labeling. Sections were post-fixed in 4% paraformaldehyde (PFA, Sigma, St. Louis, Mo., USA, dissolved in PBS, 0.1 M, pH 7.4) for 15 minutes, and rinsed in PBS two times for 5 minutes. For single labeling of […], sections were incubated with 0.03% hydrogen peroxide (H2O2, Merck, Darmstadt, Germany) for five minutes for chromogen visualization (IHC). For both chromogen and fluorescence visualization sections were incubated with 1% bovine serum albumin (BSA, Sigma, St. Louis, Mo., USA; diluted in PBS) for 30 minutes. Sections were then incubated with rabbit anti-human […] […] The choices of optical sections and scan depths were determined from the centre position of the majority of nuclei (DAPI labeling) in the scanned field. Sequential scanning was performed of channels displaying AF488, HiLyte Fluor 647, DAPI and Texas Red fluorescence. For each channel the renal profile with the highest fluorescence intensities was selected as a reference, from which the acquisition settings (laser power, PMT detector gain, digital offset) were optimized and used for all scanned areas. […]

Data set [7] in a line: SDS-PAGE / Western blotting of injected non-labelled A1M in kidneys and serum. It counts as in vivo, NMRI mice. The procedure:
SDS-PAGE analysis was performed on kidneys and serum from animals that had been injected i.v. with non-labeled A1M (100 μl/animal, 1.5 mg/ml). Animals were terminated at 10, 20 and 60 minutes post-injection, blood and kidneys were sampled and kidneys were washed and placed in 1 ml PBS. Following mechanical tissue homogenization, tissue was centrifuged at 10,000×g for 10 minutes and supernatant was transferred to a new tube and used for further analysis as describe below. Serum was obtained from the blood samples by centrifugation at 1,000×g for 10 minutes. SDS-PAGE gels were run under reducing conditions and the separated proteins were transferred to polyvinylidene difluoride (PVDF) membranes (Immobilon-P, Millipore, Bedford, Mass., USA) using Trans-Blot Turbo transfer system (Bio-Rad, Delaware, USA). […] The membranes were developed using a ChemiDoc MP Imaging system (BioRad).

With `C[C@@H](O)[C@H](NC(=O)[C@@H]1CSSC[C@H](NC(=O)[C@@H](Cc2ccccc2)NC(=O)CN2CCN(CC(=O)[O-])CCN(CC(=O)[O-])CCN(CC(=O)[O-])CC2)C(=O)N[C@@H](Cc2ccc(O)cc2)C(=O)N[C@H](Cc2c[nH]c3ccccc23)C(=O)N[C@@H](CCCCN)C(=O)N[C@@H]([C@@H](C)O)C(=O)N1)C(=O)O.[177Lu+3]` [^177Lu-DOTATATE, ^177Lu-DOTA0, Tyr3]octreotate, reference compound], the “plasma creatinine levels (marker of GFR) versus control” value in data set [1] (150 MBq, after 1 and 8 days) is “significantly increased”. Further, the “albumin concentrations in urine (proteinuria) versus control” value in data set [1] (150 MBq, after 1 and 8 days, more pronounced after 1 day) is on record as “significantly elevated”. Also, the creatinine clearance loss in data set [2] was 3.8 % per year.

B1: ^125I-A1M: Recombinant human A1M radiolabelled with 125I using the chloramine T method (protein, UniProt P02760 20-203, looked up)
Alpha-1-microglobulin: GPVPTPPDNIQVQENFNISRIYGKWYNLAIGSTCPWLKKIMDRMTVSTLVLGEGATEAEISMTSTRWRKGVCEETSGAYEKTDTDGKFLYHKSKWNITMESYVVHTNYDEYAIFLTKKFSRHHGPTITAKLYGRAPQLRETLLQDFRVVAQGVGIPEDSIFTMADRGECVPGEQEPEPILIPRV
modifications: Alpha-1-microglobulin 125I radiolabel
On to B1, for which, in data set [3], the “fraction of i.v. administered substance localized in kidneys” value was > 30%. In data set [4], the “time of maximum (peak) uptake in the kidneys post-injection” value came out at 20 min and the “uptake in the kidneys (biodistribution)” value was “High uptake”.

B2: α1-microglobulin (protein, listed as Homo sapiens)
chain: MHHHHHHHHGGGGGIEGRGPVPTPPDNIQVQENFNISRIYGKWYNLAIGSTCPWLKKIMDRMTVSTLVLGEGATEAEISMTSTRWRKGVCEETSGAYEKTDTDGKFLYHKSKWNITMESYVVHTNYDEYAIFLTKKFSRHHGPTITAKLYGRAPQLRETLLQDFRVVAQGVGIPEDSIFTMADRGECVPGEQEPEPILIPR
notes: Recombinant human A1M expressed in E. coli
As to B2, the “GFR (plasma creatinine) on simultaneous infusion of A1M” value in data set [1] (150 μg A1M + 150 MBq 177Lu-DOTATATE, 1 and 8 days, highly significant after 8 days (P<0.01)) was “restored the GFR to control levels”. Besides, the “proteinuria (urine albumin) on simultaneous A1M-treatment, after 1 day” value in data set [1] (150 μg A1M + 150 MBq 177Lu-DOTATATE, 1 day) is reported as “significantly reduced”. In addition, in data set [1] (150 μg A1M + 150 MBq 177Lu-DOTATATE, 8 days), the “significantly reduced proteinuria (urine albumin) on simultaneous A1M-treatment, after 8 days” value is given as “not”. In addition, in data set [5], the “T½ of transport across the vessel walls to the extravascular compartment” value is 2 to 3 min. For the same molecule, in data set [6], the “fluorescence detection in kidney at 4 hours p.i.” value is recorded as “significant decrease”. In data set [4], the “maximum of injected substance found per gram kidney tissue” value is on record as 76% and the “time of maximum (peak) uptake in the kidneys post-injection” value is 10 min. Besides, in data set [7] (10, 20 and 60 minutes post-injection, 150 μg A1M i.v.), the “state of A1M found in blood and kidneys” value is given as “intact, full-length”. For the same molecule, the “time of highest amounts of A1M in kidneys and serum” value in data set [7] (Western blot, 10, 20 and 60 minutes post-injection) turned out to be 10 min. The “time post-injection up to which A1M is intact, full-length” value in data set [7] (kidneys, i.v. injection) was ≥ 60 min.
